Test: protease stability score; higher = more stable; yeast display proteolysis, trypsin and chymotrypsin;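 also: relative to predicted unfolded state with 0 unfolded-like and 1 meaning tenfold more protease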

Sequence | protease stability score
DETHEEHNRFAEEYVHALHTGDEDRLRELMDPNVRFILIIDGKEVRLHGWELLLRVIREFWERFKNIRIFIRDIDLQGEKIRLETEVNVDGVDEHWRINMVVVNGRIKSLIIEQR | 2.32
DETHELIEFLLKEMIEAWKTGNEEKIMELFDPNVRLDIGDKHYHGREEVVRAMHEYRRRLGAKHITLHDHSVVNGVIHIDTVVNQGDKEVTIHIHIHIVDGKIKRIEIRLK | 2.07
DETHEMNEEFLRLLIHAWRTGDEDLLLHLADPNVKVNVGEFHHHGREKFSEWLKHIRFDDMRVHDMRIFDGVAHFITESDVTFNGRRRRVHVRIVVEKVNGKWRLKLFEEE | 2.66
DETHKDAERALEIEIRDFVTGDFKSMQRLADPNVKIEVGDKHWHGREEFEKLVKEVIDQFPNMRLDVRVTHWELQGEKLIMRTEVNEHFDGVTFKHETHIIIRKINGRWFLTSVHIQ | 1.36
DETHKLLEDLTRLFWELTHTGDEEIVEELADPHVRSEINGKERHGREEHVKAWREWRIERMTLRSVSVINGQMSIDGEIVLKIGDKRIETRIEIRIHIVDGVMKSVKIHLE | 0.937
DETHRDMEEALRLFVRLLETGNEEILSKLVDPHVKIDFENHQHIGMEDWMKFMHHIRLDSMRIDDFKLIGDKARSDTTLDGNVNGRHFKFKTWIVAQKVDGRWLEHSVEYR | 0.885
DETHVQMERFIEEHIKSHITGDEDYLRENIDPEARVVIDGQTYHGWKAIKDAIDQWRVTDMRIRHVRVQGEKVDIHGRLHVDVNGRNIDLEVRIIVTKVDGRWVVDQLIFN | 1.16
DETKDDSDWAVELWEKLFKTGDEHLHERLADPHTRKEVGDKEFHGRELILKQFVEFVEKVKNIQLEFTHVKEQGEKVEMDTTLRIDGVRIRTKMIALKIDGVWLVKIIHIE | 0.964
DETKEAFDRAIEKLSRWMFTGDEDKVDHLMDPDVRIEQGDKELHGMEDARRYLTEIRVKVRDMKITHMRIYDGRIDIDGETHLEVKVGDKHLHIDTRVYIDSYKVDGRWFFHEIRIK | 0.98
DETKEAIDRLFEVIHRMMITGDEHEFMKLVDPNVKVIQGEKIYHGREVIVNMLREILKWAGVENIQSHLDPERVHIQGDKLLVRGRLELRIGDKSEERDVEFVVVKVDGRWLIRVWKIE | 2.74
DETKEDTNRWIEHELRALKTGNWKEQFKNLDPNVRMHLHVGDKNKDLHGREKVTTELRRLFEEFGIKHIHLTNFEVQGDKIHLIMHIEVDGRHIELHLIVTKIDGKWHMESIEMHFR | 0.866
DETKEHVHNWMELVVHWYETGDEEEILKNADPNVRTIFNGVDYHGWEHLEEILKKIRHFFKNARVEIERIEIQGDKLILDVNVEINGQRDTLHIHVKVVDGVMKNLEIRHG | 1.59
DETKEKVRIALELLETLHRTGDEDKFLELADPHYQLHINGQTVIGRETIYELLVRFLHHLGATSEVRIRSVDWQGDKIIVDMRLHFRVGDKSFEIQVHIYILKVNGKWLIESIEIR | 1.68
DETKEQSDEFIRIWVKARRTGDEHKLRRLIDPNVRVLINGKDLIGMDRALEIIEMFRKEFGIDHMHFTVRHVDIFNGVAISDFKVEINFNGREHEFTTHLVNLKIDGVWHTHSMEFH | 0.546
DETKEYAKEMFEILKESLETGDWKKIRHLADPNVRLHIGEFEHHGWKEFIHFFREFLHHLRLEDVETKHIEVQGDKMILRTTLHLRQGDKSRDLDVIIIYRKIDGRWMLHSVEIR | 1.4
DETKHHHDRLFEEEAKAIATGDWEKLKELLDPHVRFEVGNKEIHGMETVLEEIERDLKRLGVTKQEVRIVIDKVDIQGEKIVSDFTLRLHFDGVTIEHKVHVIEVKIDGRWLIQSIRIE | 1.53
DETKQETDRLVKMMLHAITTGDEKFIHHLIDPNVRLEVGDKSFHGREDAFEMLRKEWEDLGVKVYKPETYKSQGDWVHFHGKEHVGDKEIELNIHIHVVDGKIKFIRIEIH | 1.2
DETNKTLKEVFRELVHSLFTGDEERLTELADPHARFHQGEKELHGREEISKEMSRMIERADHVKIILTHMEVQGDKIIIEGHLEIRVDGRRIDVSTTLILHKVNGRWFITEIHII | 0.241
DETQELAEEIVRKMIENWLTGNEEELHKMADPHVRVHINGVDLHGREVWEKWVHDELEKIPGIRREFELKRLEIYGDYIDIDGILILTFNGRKHTHKVRIHLHIVDGKLHRLEIRNK | 1.28
DETREESYEFLWKLIHNWQTGNEDRLDELIDPHVRLVVGDKNHHGREELIELIREILERADHLRMRMRHFRVQGDKAEVDTRLQMEIGDKSIDTETHVRIIVVDGRVKYLEYEIK | 0.459
